Test results taken from patent US20250171549A1 (Amgen, published 2025).
Where no end group is shown, it is not given here.

Assays:
[1] = biological target: T1, human CCR8 (human, UniProt P51685 1-355); test: cell-based or functional assay
[2] = biological target: T2, huCCR8 (1-12)-Nb (human, not fully specified (C-terminus); also: fused to nanobody, biotinylated in Fab assay); test: BLI (Octet), mAb on anti-huIgG Fc sensor, peptide-Nb in solution
T2 construct: Expressed in human cells; also called CCR8 peptide-Nb fusion; not shown: nanobody (Nb) fusion partner, any linker or tag to it, and the biotin site
T2 peptide: MDYTLDLSVTTV
Experimental: (§1) Binding affinities (KD equilibrium dissociation constant) and rate constants (kₐ association rate constant, kd dissociation rate constant) of an Antibody 1 Fab and CCR8-binding monoclonal antibodies (mAbs) of the present invention to a CCR8 1-12 epitope (SEQ ID NO: 82)-nanobody (Nb) fusion protein were measured using an OCTET® Biolayer Interferometry system (Sartorius AG, Göttingen, Germany). The CCR8-nanobody fusion proteins were expressed in human cells. For Fab binding, biotinylated CCR8 peptide-Nb fusions were captured on streptavidin SAX biosensors to loading levels between 2 and 4 nm and then incubated with a dilution series of the soluble Fab (top 100 nM, 6-point, 1:3 serial dilution) for 300 seconds followed by 500 seconds in buffer for dissociation. For mAb binding, mAbs were captured on an anti-huIgG Fc capture biosensor to 1 to 2 nm loading level and then incubated with a dilution series of non-biotinylated CCR8 peptide-Nb fusions (top 100 nM, 6-point, 1:3 serial dilution) for 300 seconds followed by 500 seconds in buffer for dissociation.
(§2) The OCTET® system acquires data over time (seconds) using a mechanism called Biolayer Interferometry; as proteins bind to biosensor tips, a sensitive binding signal in nm is measured by the instrument. All fiber optic tips were used once and then discarded, i.e., no regeneration. OCTET® buffer baselines, dissociation steps, and protein dilutions were made with OCTET® buffer (10 mM TRIS pH 7.5, 150 mM NaCl, 1 mM CaCl₂), 0.13% (v/v) Triton X-100 and 0.10 mg/mL BSA).
(§3) Raw data was processed with GeneData Screener v18 SPR package which uses the same data processing as the OCTET® instrument Data Analysis software (subtract average of two reference wells per column; Align Y-axis to baseline; Interstep correction align to dissociation; and Savitzky-Golay filtering). Each Fab or mAb interaction was grouped into its own sensorgram and globally fit with a 1:1 binding model to determine the association rate constant (kₐ; units M⁻¹ sec⁻¹) and the dissociation rate constant (kd; units sec⁻¹).

[3] = biological target: T3, huCCR8 (1-25)[C25S]-Nb (human, not fully specified; biotinylated for the Fab assay, non-biotinylated for the mAb assay ; biotinylated when captured on streptavidin sensors (Fab assay); non-biotinylated in the mAb assay); test: as above
T3 construct: Expressed in human cells; also called CCR8 peptide-Nb fusion; not shown: nanobody (Nb) fusion partner, any linker or tag to it, and the biotin site
T3 peptide: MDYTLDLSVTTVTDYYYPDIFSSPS

[4] = biological target: T1, human CCR8; test: cell-based or functional assay; remark: listed apart in the source
[5] = biological target: T4, cynomolgus monkey CCR8 (comprising threonine at position four) (cynomolgus monkey, UniProt O97665 1-356 (rhesus entry)); test: flow cytometry titration on CHO cells
T4 construct: also called Cyno CCR8; cynomolgus CCR8
Experimental: (§4) Bound anti-CCR8 antibody molecules were detected with Alexa Fluor 647 conjugated Goat anti-Human IgG (H+L). Cells were subsequently stained with Zombie Violet viability dye, fixed with 4% PFA on ice, and detected by fluorescence cytometry. Equilibrium dissociation constant (Kd) values were calculated by non-linear regression with the one site specific binding evaluation tool of the GraphPad Prism software. “N.D.” means not detectable.

[6] = biological target: T5, cynomolgus monkey CCR8 (T4R; comprising arginine at position four) (cynomolgus monkey, UniProt O97665 1-356 (rhesus entry)); test: flow cytometry titration on CHO cells; N.D. means not detectable
T5 construct: Expressed on CHO cells; also called cy CCR8 (T4R); Cynomolgus monkey Mauritian origin T4R CCR8
T5 chain: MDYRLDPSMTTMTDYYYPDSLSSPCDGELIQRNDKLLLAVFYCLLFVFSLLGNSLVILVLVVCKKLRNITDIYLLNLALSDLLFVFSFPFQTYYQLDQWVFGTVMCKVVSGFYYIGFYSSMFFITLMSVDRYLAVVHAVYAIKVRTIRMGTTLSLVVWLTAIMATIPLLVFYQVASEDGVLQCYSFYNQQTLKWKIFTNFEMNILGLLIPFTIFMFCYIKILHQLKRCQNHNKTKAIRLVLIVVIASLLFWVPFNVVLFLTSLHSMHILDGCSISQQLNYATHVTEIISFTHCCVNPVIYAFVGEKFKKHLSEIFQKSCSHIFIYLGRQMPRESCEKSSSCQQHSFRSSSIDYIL
Experimental: as §4

[7] = biological target: T1, human CCR8; test: cell-based or functional assay; remark: listed apart in the source
[8] = biological target: T2, huCCR8 (1-12)-Nb; test: BLI (Octet), biotinylated peptide-Nb on streptavidin sensor, Fab in solution
Experimental: as §1, §2, §3

[9] = biological target: T3, huCCR8 (1-25)[C25S]-Nb; test: as above
[10] = biological target: T1, human CCR8; test: cell-based or functional assay; remark: listed apart in the source
[11] = biological target: T5, cynomolgus monkey CCR8 (T4R; comprising …); test: flow cytometry titration on CHO cells
Experimental: as §4

T1 sequence (P51685 whole entry, the tested form may be a part): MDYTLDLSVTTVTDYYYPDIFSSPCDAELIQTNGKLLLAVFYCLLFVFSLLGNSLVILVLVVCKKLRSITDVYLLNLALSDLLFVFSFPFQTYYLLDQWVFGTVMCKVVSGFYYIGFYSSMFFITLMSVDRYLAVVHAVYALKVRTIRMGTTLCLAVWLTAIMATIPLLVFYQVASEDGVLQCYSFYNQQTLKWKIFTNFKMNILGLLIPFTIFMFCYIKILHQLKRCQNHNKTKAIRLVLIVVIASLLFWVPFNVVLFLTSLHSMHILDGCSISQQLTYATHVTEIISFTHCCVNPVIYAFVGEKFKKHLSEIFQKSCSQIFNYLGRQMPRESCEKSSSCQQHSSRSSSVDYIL

B1: huCCR8_44379 (VH: D72S, VL: N67A_S68A_M99G_W109F_S111A)_huIgG1z (mAb) (antibody, V domains shown)
VH: QVQLVESGGGVVQPGRSLRLSCAASGFTFSNYGFHWVRQTPGKGLEWVAVISYDGSNRYYASSVKGRFTISRDNSKNTLYLQMNSLRGEDTALYYCARVYYGSGTYYKNRYYYGMDVWGQGTTVTVSS
VL: SYELTQPPSVSVALGQTARITCGGHNIGSKGVHWYQQKPGQAPVLVIYRAANRPSGIPERFSGSNSGNTATLTISGTQAGDEADYYCQAFDAGTVVFGGGTQLTVLG
notes: Engineered from scFv MPK20299-A4; afucosylated IgG1, HC without C-terminal lysine
In the case of B1, the “ADCC, Percent Non-Viable cells (EC50 pM), Donor 7” value [1] is reported as 0.48 pM, the Kd [2] is reported as 9 nM and the koff [2] is reported as 0.0011 s⁻¹. The kon [2] was 122000 M⁻¹ s⁻¹, the Kd [3] was 9.8 nM and the koff [3] was 0.000975 s⁻¹. The kon [3] was 99300 M⁻¹ s⁻¹.

B2: Antibody 1.1 IgG1 (LC: H45Q_S51P) (antibody, V domains shown)
VH: EVQLVESGGGLVKPGGSLRLSCAASGFTFSNARMGWVRQAPGKGLEWVGRIKSKTEGGTRDYAAPVKGRFTISRDDSKNTLYLQMNSLKTEDTAVYYCTSYSGVWGQGTMVTVSS
VL: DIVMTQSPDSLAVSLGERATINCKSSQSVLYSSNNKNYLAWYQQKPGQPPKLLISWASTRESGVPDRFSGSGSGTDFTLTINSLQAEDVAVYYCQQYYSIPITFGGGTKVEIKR
notes: Afucosylated IgG1
B2 was tested, and the “ADCC, Percent Non-Viable cells (EC50 pM), Donor 1” value [4] was < 0.256 pM, the “ADCC, Percent Non-Viable cells (EC50 pM), Donor 2” value [4] was 8.13 pM and the “ADCC, Percent Non-Viable cells (EC50 pM), Donor 3” value [4] was 2.2 pM. For the same binder, the Kd [5] was 0.172 nM and the binding result [6] was “no binding (tested: 0.005-100 nM)”.

B3: huCCR8(32360LC:K38R)_huIgG1z(mAb) (antibody, V domains shown)
VH: EVQLVESGGGLVKPGGSLRLSCAASGFTFSNARMGWVRQAPGKGLEWVGRIKSKTEGGTRDYAAPVKGRFTISRDDSKNTLYLQMNSLKTEDTAVYYCTSYSGVWGQGTMVTVSS
VL: not shown
notes: Afucosylated IgG1, HC without C-terminal lysine
In the case of B3, the “ADCC, Percent Non-Viable cells (EC50 pM), Donor 8” value [7] is reported as 3 pM, the “ADCC, Percent Non-Viable cells (EC50 pM), Donor 9” value [7] is reported as 2.7 pM and the Kd [2] is reported as 60.6 nM. For the same binder, the koff [2] was 0.024 s⁻¹ and the kon [2] was 397000 M⁻¹ s⁻¹.

B4: Fab (HCVR SEQ ID NO: 13; LCVR SEQ ID NO: 14) (Fab, V domains shown)
VH: EVQLVESGGGLVKPGGSLRLSCAASGFTFSNARMGWVRQAPGKGLEWVGRIKSKTEGGTRDYAAPVKGRFTISRDDSKNTLYLQMNSLKTEDTAVYYCTSYSGVWGQGTMVTVSS
VL: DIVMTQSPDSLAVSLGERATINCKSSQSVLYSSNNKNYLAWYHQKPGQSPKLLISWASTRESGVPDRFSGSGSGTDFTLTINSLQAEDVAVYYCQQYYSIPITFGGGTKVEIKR
notes: also called Antibody 1 Fab
In the case of B4, the Kd [8] is reported as 22.6 nM, the koff [8] is reported as 0.0132 s⁻¹ and the kon [8] is reported as 584000 M⁻¹ s⁻¹. For the same binder, the Kd [9] was 17.4 nM, the koff [9] was 0.0106 s⁻¹ and the kon [9] was 606000 M⁻¹ s⁻¹.

B5: Antibody 2.2 IgG1 (LC: F2I_P51S_H53Q_L103V_N148K, HC: K87N_S94N_V98A)(LC: Y25A, HC: A71L_D72K) (antibody, V domains shown)
VH: QVQLVESGGGVVQPGRSLRLSCAASGFTFSNYGMHWVRQAPGKGLEWVAVISYDGSNKFYLKSVKGRFTISRDNSKNTLYLQMNSLRAEDTAVYYCARAGGIGRFDYWGQGTLVTVSS
VL: DIVMTQTPLSLSVTPGQPASISCKASQSLLHSDGKTYLFWYLQKPGQSPQLLIYEVSNRFSGVPDRFSGSGSGTDFTLKISRVEAEDVGVYYCMQTLKLPLTFGGGTKVEIKR
notes: Afucosylated IgG1
With B5 the “Percent Inhibition (IC50 nM) of CCL1-dependent chemotaxis of HUT78 cells” value [10] was 0.076 nM, the “ADCC, Percent Non-Viable cells (EC50 pM), Donor 1” value [4] was < 0.256 pM and the “ADCC, Percent Non-Viable cells (EC50 pM), Donor 2” value [4] was 6.04 pM. The “ADCC, Percent Non-Viable cells (EC50 pM), Donor 3” value [4] was 1.8 pM, the Kd [5] was 0.399 nM and the Kd [11] was 0.989 nM.
